Experimental data published in patent US20120083036A1, “POLYSACCHARIDE TRANSFERASE” (ADELAIDE RESEARCH AND INNOVATION PTY LTD, priority 2006, published 2012).
“Also recorded” adds a separate entry of the source. Read-outs that look alike come from different tables or passages of the source.

Experiments:
HvXET5 [1] = target: T1, HvXET5 (Hordeum vulgare, UniProt P93668); settings: 1 nM HvXET5, pH 6
Description: The effect of Ca^2+ (as calcium chloride) and Mg^2+ (as magnesium sulfate), both in 0-15 mM concentration ranges, and of EDTA in a 0-20 mM concentration range, were determined by incubating 1 nM HvXET5 in 100 mM succinate buffer, pH 6. Enzyme activities were determined radiometrically as specified above, in triplicate and with a standard error of 8-10%.

HvXET5 [2] = target: T1, HvXET5; assay: pH optimum and enzyme stability of HvXET5; type: biochemical, barley (Hordeum vulgare L., cv. Clipper)
Description: The effect of pH on the activity of HvXET5 was determined by incubating 1 nM HvXET5 at 30° C. for 60 min in 50 mM citric acid/100 mM sodium dihydrophosphate (McIlvaine) buffers, pH 4.0-8.5 in the presence of 0.02% (w/v) BSA. […] The thermal stability of HvXET5 was determined after 15 min incubation at 0-70° C. The freeze/thaw stability of HvXET5 at 1 nM concentration was determined after three cycles of freezing (−80° C.) and thawing (4° C.), each of 3 min duration. Activity was subsequently measured at 30° C. in 100 mM ammonium acetate buffer, pH 6, containing 5 mM calcium chloride, without and with the addition of 10% (v/v) glycerol. Enzyme activity was determined radiometrically as specified above, and expressed as % activity relative to maximal activity. Assays were performed in triplicate and standard errors of 8-14% were observed.

HvXET5 [3] = target: T1, HvXET5; assay: Radiometric activity assay of HvXET5 with TXG and [3H]-labelled XXXGol; type: biochemical, barley (Hordeum vulgare L., cv. Clipper); settings: purified enzyme; 30° C., pH 6.0, 0.3% (w/v) TXG
Description: The activity of HvXET5 during enzyme purification was determined radiometrically at 30° C. in 100 mM succinate or ammonium acetate buffers, pH 6.0, containing 5 mM calcium chloride, 0.3% (w/v) TXG and [^3H]-labelled xyloglucan-derived saccharide heptaitol (XXXGol, specific radioactivity 83 MBq·μmol^−1) (Fry, et al., Biochem. J. 282, 821-828, 1992) with approximately 30,000 dpm per reaction mixture. The radioactivity incorporated in reaction products was counted on 2×1 cm Whatman chromatography 3MM paper strips in plastic vials and using LSC6500 Scintillation counter (Beckman, Fullerton, USA) with approximately 48% efficiency for tritium, using EcoLume scintillation fluid, and with 70% quenching. Enzyme activity of HvXET5 during purification is expressed in katals, where 1 kat represents 1 mol of product formed per s; specific activity is expressed in pkat·mg^−1 protein.

[4] = substrate: OC[C@@H](O)[C@@H](O[C@@H]1O[C@H](CO[C@H]2OC[C@@H](O)[C@H](O)[C@H]2O)[C@@H](O[C@@H]2O[C@H](CO[C@H]3OC[C@@H](O)[C@H](O)[C@H]3O)[C@@H](O[C@@H]3O[C@H](CO[C@H]4OC[C@@H](O)[C@H](O)[C@H]4O)[C@@H](O)[C@H](O)[C@H]3O)[C@H](O)[C@H]2O)[C@H](O)[C@H]1O)[C@H](O)[C@@H](O)CO; assay: Km and kcat constants of HvXET5; type: biochemical, barley (Hordeum vulgare L., cv. Clipper); settings: other: acceptor substrate
[5] = concentrations between 5 and 15 mM

Molecule: O=S(=O)([O-])[O-].[Mg+2] [Mg^2+, magnesium sulfate]
- Inhibition of HvXET5 activity (HvXET5 [1]; [5]): 3-4%

Molecule: ethylenediamine tetraacetic (disodium salt, dihydrate) [EDTA]
- Inhibition of HvXET5 activity (HvXET5 [1]; 2-20 mM concentration ranges): approximately 30%

Molecule: [Ca+2].[Cl-].[Cl-] [Ca^2+, calcium chloride]
- Stimulation of HvXET5 activity (HvXET5 [1]; [5]): 7-8%

Molecule: OCC(O)CO [glycerol]
- Effect on HvXET activity after freeze-thawing cycles (HvXET5 [2]; 10% (v/v) addition): no effect

B1: HvXET5: barley xyloglucan xyloglucosyl transferase (XET isoenzyme) purified from extracts of 7-day-old barley seedlings (protein)
chain: MKATAGALLAVVATVLLRGIAAAPPRKPVDVPFEKNYVPTWAEDHIHYVNGGREVQLSLDKTTGTGFQTRGSYLFGHFSMHIKLVGGDSAGTVTAFYLSSQNSEHDEIDFEFLGNRTGQPYILQTNVFSGGKGDREQRIYLWFDPTKDYHSYSVLWNLYMIAFFVDDTPIRVFKNSKDLGVRYPFDQPMKLYSSLWNADDWATRGGREKTDWSKAPFVASYRGFHVDGCEASAEAKLCATQGARWWDQPEFQDLDAAQYRRLAWVRKEHTIYNYCTDRERYAAMSPECKRDRDV
modifications: Hordeum vulgare
notes: barley xyloglucan xyloglucosyl transferase (XET isoenzyme) purified from extracts of 7-day-old barley seedlings
- Activity at 0° C. relative to activity observed at 30° C. (HvXET5 [2]; 0° C.): approximately 40%
- pH optimum (HvXET5 [2]; 30° C., McIlvaine buffers pH 4.0-8.5): 6.0
- Freeze/thaw stability (HvXET5 [2]; several freeze-thaw cycles): did not lose activity
- Storage stability (retention of activity) (HvXET5 [2]; stored at −20° C.): retained its activity for at least a year; also recorded: remained more or less constant for at least a year
- Effect of buffer ionic strength on activity (HvXET5 [2]; succinate, ammonium acetate or sodium phosphate buffers, each at 50-200 mM): unaffected
- Specific activity (HvXET5 [3]): 3,630 pkat·mg^−1

B2: HvXET5 (Hordeum vulgare) (protein)
chain: APPRKPVDVPFEKNYVPTWAEDHIHYVNGGREVQLSLDKTTGTGFQTRGSYLFGHFSMHIKLVGGDSAGTVTAFYLSSQNSEHDEIDFEFLGNRTGQPYILQTNVFSGGKGDREQRIYLWFDPTKDYHSYSVLWNLYMIAFFVDDTPIRVFKNSKDLGVRYPFDQPMKLYSSLWNADDWATRGGREKTDWSKAPFVASYRGFHVDGCEASAEAKLCATQGARWWDQPEFQDLDAAQYRRLAWVRKEHTIYNYCTDRERYAAMSPECKRDRDV
- Km [4]: 69·10^−6 M
